Source: a protein production outcome set (Wang et al. 2014)

Experiment: label from the status in PepcDB records
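Further: failed if final PepcDB status was selected cloned or expressed and not failed if soluble or beyond.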

Which protein production does the source give for “MQRFLSIALALCVGLTLSLDASAKRFGGGKSSGSAPIHQTRQATPTTPAAAPTVPGRAPAAASGASRWLGPLAGLAAGGLLASMFMGDGFEGFQIMDFLIVALIAFLVFRFIAARRRQQQPQMAMPGHAPMQREAHAQPAQPSIFGGSAAPAATAAPVINAPAWFNEQSFLAAARNHFQSLQQHWDANEMDKISEFVTPQMLEFLKRERAELGDGFQSTYIDNLEVQLDGVDDRADRTDATLTFRGVSKNSRFDQGEVFSESWHMVRAQGENQPWLVAGIRQNS” here?
Its protein production is “failed”.

With “MQRISVIVPMYNEARHITRTLDSVLRAARAATLDCELIVVDNGSTDQGPQRARELGARVLLCPGIGIGALRNRGAAVATGDSLAFLDADIEVPGNWLQLWQQAHAEQRAEVFALDCAAPASAPWFARAWQRRSLAGDPQPRLLPWMPTPNLCLQRAWFERVGGFNEQLRTGEDKDFGLRLHAAGARQLSLPQPQVLHWGYEASWAEWAGKERWRQGSHVQLLKGSGLSLRLLRFPLLCLACALLSLVALLCLLAGLPGAAGLCLLLGALAPLALAVRQGLRQRDPLFVLQLWLLHWVRLHLGALALVQALFNRSAERPDRG” as the sequence, how does the protein production read?
The protein production was “failed”.

With “MQRLLLANDLPGVGKVALATSIPIAAACQVETMLLPTVLLSSHTGGFPDVVIEDMTDLNQAYFEQWKNLNLELAGILSGYCRNPQQLSQLAMYAKHTETPLIVDPIMGDSGRLYTGFTSSYVEAMKELTQSAQLILPNITEASLLTGRNYLGDSYDIHDIEDLLEALAEQVSADIVLTGISFDDSQIGVAYFQQETGEITTYMSKKYPANFFGTGDILSTLLAVATIQQINLHQAIPLALDFIDKSLERTLALDRDLKFGISFEPFLAELQQAFQILKEKL” as the sequence, how does the protein production read?
The protein production was “failed”.

For “MQRVEEVFARREPELAPMAEPAPQPQVRQEPLPEVDQAYIHNYVETSGQQDIRADFRDDAGAVAEVFDVHSRQPRAAEPVVYQQAAPQVAPQLAWEEPQAIEPSQPEWHAMPELPADVSSNISSDAHAYAPEPQAFDLADEVEIAVAEAAPAPVSVRPPAHGGRSSLEFSSLRLPLANFGARRDVSAVDPRRVEPRSELYPAASRIEPQVEPAPAVVQAEETAPSFAQPVAEVFTPAAEPLAPAIAERPAAKNLSPMDELIYGVAQYSIPERGEAQPVKTEPVAQAAKVEPPAVAAAPAKAAPVAAAVPASPIEEPDFTDFTGFNDDDFELALDDLDLDLDLSEIAEAEVAPAPQPVRPQPATPIAAVAPQPVRHEPAPQPRPAPVVAAAPIAAAPVVAAPVQPRPVAAQPAVPQTLESLPFDPSQIGETEEHPETIIEMDVPELPVGVFEPKPAARRHEEDLDIDTELATLFAPAVAGGLDRHKHAENRGAAQARPAPAPEEADEFERALEEDFRRSMQEAAASRGNAPRDAETYVDHQAAYRDEDERGGRRWIMPVAAAIGLVLIGGGVYALISGGSSGTGSNGAPVIISADNDPMKVVPENPGGRVVPNQDKAVYDRVAGGAAADPKQPALISSNEKPVDVVQRTLIPEQLPLEGENDADMEAAGTPVGETEDPRLLSPEEKAAHNEGAGATGVSPRKVRTMIVKPDGTLVAQEVDAPAAQPPKADKVAELAAPQTAKPGEGAPAVIAASRVPVAPEQAQPQASTPAAAKPSTQSAAPLPAARPSSQPANVVATVTNQGNVRPATTAPAQAAQQQTAAATPAATSTPSAGGYYIQIASLPSQAEAQKSYQNMSAKFGSVIGGRGVDIKAAEIAGKGTFYRVRIPAGDKNEAVALCEKFRSAGGSCLVAR”, which protein production is on record?
Its protein production is “failed”.

For “MQRVLGFSTCSYSWIAQSFNRFHPRCIQPTCFRSKVTKLCPKRPRSSLLSDNNATKYPQKAIYLTAQVKLPQISEVQNATFDQCLPLARNICFRLQEEPQDENAYQVLKELLSREEGARAFFVEYLSDYELSLPDKKPPFKLEKLLKDCDEYVPNLLARNLAMSVAKEVDLANDSKNAENEEVDDTGSGSWSDSVEESSGGPTMVKERTALLIDSIASSEIARELVALWFSIRSRKGKYVHFLERQKFRKDQLDVIQRTLEVFIGA”, which protein production is on record?
The protein production was “failed”.

For “MQSKRGRPRNIETQKAILSASYELLLESGFKAVTVDKIAERAKVSKATIYKWWPNKAAVVMDGFLSAAAARLPVPDTGSALNDILIHATSLANFLISREGTIINELVGEGQFDSKLAEEYRVRYFQPRRLQAKQLLEKGIKRGELKENLDIELSIDLIYGPIFYRLLVTGEKLDDSYVHDLVINAFEGIRLR”, which protein production is on record?
Its protein production is “not failed”.

For “MQSPPHDPASALAIRNHYRQSQSRAARLRLLVDTGQELIQLPPEAMRKCVLQRACAFVAMDHGLLLEWGADNGVQTTARHGSKERLSTLETTADPLAIGPQWLERPGTHLPCVLLLPLRGADEGSFGTLVLANSVAISAPDGEDIESLQLLATLLAAHLENNRLLEALVARDRT”, which protein production is on record?
The protein production was “not failed”.

With “MQSTIRKQLLQVFSEADGEFVSGQTISDKLGCSRTAVWKHMEDLRNEGYELEAVRRLGYRIASKPDKVTANEIQLGLQTKHIGRTVYFEESVESTQHIAAKLAYEGAEEGTIVVAEEQTAGRGRLSRKWHSPKGTGIWMSIILRPSIPVHHAPQLTLLAAVSVAQAIEKCTGVNVGIKWPNDILIQGKKAVGILTEMQADPDKINAVIMGIGINANQKQEHFDEEIQHIATSLAIESGKPIVRAELMQQIFLQLEKLYEEYLQNGFSVIKILWESYAVSIGKEINARTMRETITGVAKGITEDGVLLLEDHEGKVHHIHSADIEIK” as the sequence, how does the protein production read?
Its protein production is “failed”.

With “MQTIIYQIAPNDWVTDEVLMASTGLKPGTILRARKKAWFVGREYKHMTLDGKPKANGECLYHLPTINRWIRNMPDPDVDLLEHHHHHH” as the sequence, how does the protein production read?
The protein production was “not failed”.

With “MQTINATEIRNNFSYYIDTVVRDKPIAVKRNRDVLLFFSEQIIKDLLQDLKIHAELSKEDGIIIGTIDGFDLVVSGESEQEVIQKLAEDLLEYAQDYMNDFKLFYNAPNRKTHYPYILKVLLSSNIDEVKGYIYAEMV” as the sequence, how does the protein production read?
The protein production was “not failed”.

For “MQTLIIVAHPELARSNTQPFFKAAIENFSNVTWHPLVADFNVEQEQSLLLQNDRIILEFPLYWYSAPALLKQWMDTVMTTKFATGHQYALEGKELGIVVSTGDNGNAFQAGAAEKFTISELMRPFEAFANKTKMMYLPILAVHQFLYLEPDAQQRLLVAYQQYATNVGAGHFKDLEHHHHHH”, which protein production is on record?
The protein production was “not failed”.

For “MQTVGSFSEFLDDMVGRYGPRPAIQYRPRYRTLRWSYLELGTHAAKLASLLDEHGVGSGDRVFLSAENSPHWVAAFFAIAARGAVIVPLNPRSPPEQLANLVRSAGPSLVLASPRRRWEGPPLPVVDIERSGRVPSNRPATRTGPARLAEIIYTSGTTGDPKGVMLTHANLLSDLSAVARAIPLAPDDHVLSLVPLFHVYGQMTSLFCPLAAGCPVSYLTTPTTRSVLEALTHTPVTHLVAVPEVLKTMMDRLESRIGRIPGFLWPLLRGRIRARISGSLRTIVCGGAPLDPVVEEKWWALGFQVLQGYGLTETSPVIAANTPQAHRIGSVGKPLDEVELRIASDGEILVKGPMVMAGYFRDPARTEAAFADGWLKTGDAGRLDADGFLYVYGRKRYMILGPGGENVFPEDIEAVLNRTAGVTDCAVVGLESGGRTLVHAVLLADADEARAAAIVAEANRHLAPHQRIVSWSLWPEPDFPRSVTRKVKKDEVLGRLRREPSTQAVPVGRSTPLRLLLAQVAGTEAGALSDDTRLVPDLGLDSLLRIELVARIEEDLGVCLDEIDIGPLTTVADLENLLVRRQDRMPRVDAHPRWSLSPWASRLRPLAQKVFLQWWIAPFCRLRVSGLEHLAALDGPVIFMANHRSYLDSAVASFALPDRFRYRLAIAAATGVLYTRYRWAVPIGELSLNAFPLPSGPDENIRPGLELIGRLLDDGWNVLIFPEGQMNRGGLGIQPLRRGAGTIGVDMGVPVVPLVIEGTEKVMPPGRIVPRAAAPVSVRFGAPLRAGEAEPHGRMLARIEDALRRLLENSPLEHHHHHH”, which protein production is on record?
The protein production was “failed”.

For “MQVELIIKNLKVYNSYFKKFIKSDVLINEGKFLHIGKGYEDRLWSENIIDGEDKYIIPGLIDIHMHIESSMTIPREFSKAAIKHGVTTVVADPHEIANVFGVRGIEEFIKFKGNLDIFYGIPSSVPSTSSSLETTGEKITHNEVKRLLEYDNIICLGEVMNFKDLIEDDDSNINKIINISKEKNIPLEGHCPKIQGVDLSLYIYRGVNGDHTQQSVGSLQEKIQNGMFIEMQHKSMTLENIKFLIENNLYEHFALVTDDVMADKLVKGHLDEILKEAVKLGMSIENAIYASTYTPARRMNLLDRGTIAPGKLADFILLDSIEDFNIYEVYKNGEMVFNRDKGLKEEFFEDKSKLDYRFYNSIELNNITKESLEVKVPNKYKNKVNCRTMKVLKNTTFTEEGEVTLNVYNNILQWEKSSCALIAVFERYGKNNNISFGLVEGEIIKEGAIATTWAHDHHNLMVMGRNISDMTIAANEVINSRGGYVVSKNNEVIAKLELPIGGIISDEPIEIIGEKLGEVRNAMRDLGYNHMNEIMSFSTLSLPVSPALKITDKGLIDVKKGSIVSLFKKGLY”, which protein production is on record?
Its protein production is “failed”.

Which protein production does the source give for “MQVIAFIAPLIDKGMDPLTGVPIRQEVPRLMERTFQENQAETYVLFLINLDRFKLVNDSLGEGYGDQVLQTLVRRLLWQLPNQQWIARVSGDEFIACAAIKGELPKKETLATYISSIIQQPFQVDEVQFTMTASIGAAVYPMDGKSVEMIWNSLERALRHAKARGGNCVSWFCQELKDEWIHPFRLENDLRRAVENQELEHHHHHH” here?
Its protein production is “failed”.

With “MQVPGHAFNPVAAPYFPDHLAFLDGPMNARAQGLPRRLENIVLVADLAGTAVFAVEGAISAMRAQLDLLGVMVIAFIVALGGGVTRDLLIGATPPKAVADWRYPALALLMGGLAFVARDWVLGWSGPLLILLDAAGLGLFAVAGTQKAQNFGISPFVSMLMGTVTGVGGGVIRDIVLARIPLVLQVDLYASSAFVGAASLVIARRLGVPPLWSAWLAGTVCFALRMLSVRYGWQLPKAL” as the sequence, how does the protein production read?
Its protein production is “failed”.

For “MQVTLIQGLLIGLFALIAGIDFWLEGLYIFRPMIVCTVTGAILGNLTLGIIAGGLTELAFAGLTPVGGTQPPNPIMAGIMTVVLAYTTGKTPSTAIGLALPFSILMQYIILFYYSAFSVLTKKLDAYAANVETKKFTRLALLPTVLVALTYGVIAFLCVYGAQEPMKALVNSMPVWLSHGFEIAGNILPAVGFGLLLKSMLKAEYVPYLLLGFTAACFIKFGNLMPVAVIGISLAFIEFYHNKKQTDNEKKLKSMIESASGNGDDGDGI”, which protein production is on record?
The protein production was “failed”.

With “MQYRIRRENEAPEAKNAGETLWERDMMREVLLSAYRDRRRERMWKNIWRAVSTLILVALIAGIFRKDEAALQLAGNTPHTAVVNLYGEIGNGVEDQVKKLKDGMEAAYKNPQAKAIVIRANSPGGSPVVSNTAFEEIRRLKAQHPGIPVYLVAEDMCASGCYYIAAAADKIYADPSSIVGSIGVIGSSFDATGLMEKIGVKRRVKIAGSNKGMGDPFSPETPEQSKIWEEMLTGIHGEFIKAVKTGRGGRLKFRQYPDVFSGRVYTGADALKVGLVDGLGNIYSVARDVVKAPDVVDYTPKDDFGRILGRRFGAELKASVREALQAVR” as the sequence, how does the protein production read?
Its protein production is “failed”.

For “MQYVMSIIGIIAVLGLCFALSNNKSKINFRAIAIMIGFQILIGWFMFATKIGQQIIIFISKVFNKLIKLGTTGVDFLFNGIHRDFVFFLNVLLIIVFFSALLSIFSYLGVLPFIVRVVGGAISKITGLPRVESFHAVNSVFFGSSEALIVIKNDLQHFNKNRMFIICCSAMSSVSASVTASYVMMLDAKYVLAALPLNLFSSLIVCSLLTPVDTKKEDEVIQKFDRTLFGDSFIGAMINGALDGLKVAGIVAALMIAFIGVMEVVNYVISAASGAMGHAVTLQQIFGYVLSPFAFLMGIPTQDIIPAGGIMGTKIVLNEFVAILDLKDTATTLAPRTVGIVTVFLISFASISQIGAIVGTIRALSEKQGSVVSKFGWKMLFASTLASILSATIAGLFI”, which protein production is on record?
The protein production was “failed”.

With “MRAAGRDRAERRMPHTWSFDYFYSLPFWAALLAVAAVVRLAGGSPVLRGLALLATSNALLLAIPGFSAADLALVWAVSGVALASARTLSRSAPGSSRARRVVVVGSVVAILAFLALFKYRFLQGLLLGPFAQVLAPRASSGVVNPLVLVGVSYFSFKAIHVVVETYRGTLGRVEALAFLNYMTFFPAFISGPINRFGDFSEQLASASPALGADLRAGGERIVHGLFKKVVLVPLVMPYLLTNQARPLDQATLLDVATGLYAYALYFFFDFAGYTDLAIGGARIIGIRLPENFRQPFFQKNIRDLWTNWHMTLTSWLVDYVYWPTVRALRNLEYLRTRPVLLSVIGMNVTFVSCGIWHGEAPHFVLWGAYHGLGISVLNVYQRQKKRIRAPRIQRWFASRYSRWLGTFATFNFFAAGLALFVLDLGQIRALLRALVG” as the sequence, how does the protein production read?
Its protein production is “failed”.
